Measurements published in paper PMC11417369, “DNA sequence and chromatin differentiate sequence-specific transcription factor binding in the human malaria parasite Plasmodium falciparum”.

B1: GTGCAC_site10087 (dsDNA)
DNA 1: TGTCACTACAAATGAGTGCATTAAATAATTTGGAAA
DNA 2: TTTCCAAATTATTTAATGCACTCATTTGTAGTGACA
B2: GTGCAC_site10028 (dsDNA)
DNA 1: ATTATAATTACTCTAGTGCATTATAAATATGAATAA
DNA 2: TTATTCATATTTATAATGCACTAGAGTAATTATAAT
B3: GTGCAC_site9970 (dsDNA)
DNA 1: ACTGTAATATTGAAAGTGCATTAAAGTGTATATTAT
DNA 2: ATAATATACACTTTAATGCACTTTCAATATTACAGT
B4: GTGCAC_site10132 (dsDNA)
DNA 1: AGTGTGTGTAATAAAGTGCATTAAAAATGACACGTA
DNA 2: TACGTGTCATTTTTAATGCACTTTATTACACACACT
B5: GTGCAC_site10322 (dsDNA)
DNA 1: TTTTTTTTTTTGTGAGTGCACGTATGAAGAGAAAAA
DNA 2: TTTTTCTCTTCATACGTGCACTCACAAAAAAAAAAA
B6: GTGCAC_site10703 (dsDNA)
DNA 1: TTTTTAATTTCAATGGTGCAGTAATAATATAATAGT
DNA 2: ACTATTATATTATTACTGCACCATTGAAATTAAAAA
B7: GTGCAC_site9564 (dsDNA)
DNA 1: GAAAATTTAAAAAGAGTGCATTATATGTTTGAATAT
DNA 2: ATATTCAAACATATAATGCACTCTTTTTAAATTTTC
B8: GTGCAC_site10447 (dsDNA)
DNA 1: TAATGAGCGCTTGTAGTGCATTATATTCAAAAATAT
DNA 2: ATATTTTTGAATATAATGCACTACAAGCGCTCATTA
B9: GTGCAC_site9803 (dsDNA)
DNA 1: GTAGTAATAAATCTAGTGCATTATATATAACAAAAA
DNA 2: TTTTTGTTATATATAATGCACTAGATTTATTACTAC
B10: GTGCAC_site10551 (dsDNA)
DNA 1: ATATATAAAAATTAGGTGCATTAAATTAAAATATAT
DNA 2: ATATATTTTAATTTAATGCACCTAATTTTTATATAT
B11: GTGCAC_site9462 (dsDNA)
DNA 1: AACTGTACAATTTTTGTGCACAATAATTATTAATAT
DNA 2: ATATTAATAATTATTGTGCACAAAAATTGTACAGTT
B12: GTGCAC_site10204 (dsDNA)
DNA 1: GGAAAATACATTCCAGTGCATTAATTTATTCAACGT
DNA 2: ACGTTGAATAAATTAATGCACTGGAATGTATTTTCC
B13: GTGCAC_site10160 (dsDNA)
DNA 1: ATTCATTTACCAATGGTGCAATATATTTTTATAATG
DNA 2: CATTATAAAAATATATTGCACCATTGGTAAATGAAT
B14: GTGCAC_site10102 (dsDNA)
DNA 1: TATATTTATATATTAGTGCACTTTTTGTTAATTTTT
DNA 2: AAAAATTAACAAAAAGTGCACTAATATATAAATATA
B15: GTGCAC_site9443 (dsDNA)
DNA 1: ACCATATATTAAAAAGTGCATTAAATATATAAATAT
DNA 2: ATATTTATATATTTAATGCACTTTTTAATATATGGT
B16: GTGCAC_site10150 (dsDNA)
DNA 1: TTTCCCTCAAATAAAGTGCATTATGATTTTAATTTA
DNA 2: TAAATTAAAATCATAATGCACTTTATTTGAGGGAAA
B17: GTGCAC_site9852 (dsDNA)
DNA 1: ATAATATATAATATAGTGCATTATTTATTAATTAAT
DNA 2: ATTAATTAATAAATAATGCACTATATTATATATTAT
B18: GTGCAC_site10692 (dsDNA)
DNA 1: ATTATTTATATTATGGTGCATAATTTTGGGTTTCTT
DNA 2: AAGAAACCCAAAATTATGCACCATAATATAAATAAT
B19: GTGCAC_site10289 (dsDNA)
DNA 1: TTTAAAATACAGAAGGTGCATTTAACATATTTGTAT
DNA 2: ATACAAATATGTTAAATGCACCTTCTGTATTTTAAA
B20: GTGCAC_site9417 (dsDNA)
DNA 1: TAATATTATTTTTCAGTGCAATATAACCTTAGAATT
DNA 2: AATTCTAAGGTTATATTGCACTGAAAAATAATATTA
B21: GTGCAC_site9491 (dsDNA)
DNA 1: AATAATAAAATAAAAGTGCATTAATTATAATTCTTT
DNA 2: AAAGAATTATAATTAATGCACTTTTATTTTATTATT
B22: GTGCAC_site10036 (dsDNA)
DNA 1: TCATAGGGGTAGAAGGTGCAATAAAAAAGAAGAAAA
DNA 2: TTTTCTTCTTTTTTATTGCACCTTCTACCCCTATGA
B23: GTGCAC_site10494 (dsDNA)
DNA 1: AATATATAGGAAAAAGTGCAATAAATGAACAAAATA
DNA 2: TATTTTGTTCATTTATTGCACTTTTTCCTATATATT
B24: GTGCAC_site9773 (dsDNA)
DNA 1: TTAAAAATTATATAAGTGCATTAATATTTAGAACAA
DNA 2: TTGTTCTAAATATTAATGCACTTATATAATTTTTAA
B25: GTGCAC_site10757 (dsDNA)
DNA 1: TATTAATTTCGGGAAGTGCATTATGTTTATAGAATA
DNA 2: TATTCTATAAACATAATGCACTTCCCGAAATTAATA
B26: GTGCAC_site9974 (dsDNA)
DNA 1: ATATGAAGTTATATAGTGCACATGTACAACCAAATC
DNA 2: GATTTGGTTGTACATGTGCACTATATAACTTCATAT
B27: GTGCAC_site10233 (dsDNA)
DNA 1: TTTTTTAAATTTAAAGTGCATTATTATATATTTGTA
DNA 2: TACAAATATATAATAATGCACTTTAAATTTAAAAAA
B28: GTGCAC_site10007 (dsDNA)
DNA 1: TTTCTTTTTTCTTCAGTGCATTAAAATTAACAAAAG
DNA 2: CTTTTGTTAATTTTAATGCACTGAAGAAAAAAGAAA
B29: GTGCAC_site9995 (dsDNA)
DNA 1: AAAGGAAAAATCCAAGTGCATTATTATTTTCACAAA
DNA 2: TTTGTGAAAATAATAATGCACTTGGATTTTTCCTTT
B30: GTGCAC_site9607 (dsDNA)
DNA 1: TATTCAGGTCCAATGGTGCAATATATTTTTGTAATA
DNA 2: TATTACAAAAATATATTGCACCATTGGACCTGAATA
B31: GTGCAC_site9926 (dsDNA)
DNA 1: GCAGCAGCATTTTCAGTGCATTATTATATTGTTCAT
DNA 2: ATGAACAATATAATAATGCACTGAAAATGCTGCTGC
B32: GTGCAC_site9746 (dsDNA)
DNA 1: TATAATTAATTAGAAGTGCATTAGGTAACAACTGTC
DNA 2: GACAGTTGTTACCTAATGCACTTCTAATTAATTATA

Target: AP2-I D3 (Plasmodium falciparum, UniProt Q8IJW6 910-1027)
Experiment: gcPBM; about 25 ug protein; PBS, 1% milk, 0.2 mg/ml BSA, salmon testes DNA, 0.03% Triton X-100
Conditions: tags: N-terminal GST (pGEX-4T-1), kept; label: surface-attached array probe

Row | Binder | binding signal
1 | B1 | 12 ln median PBM intensity, better of two orientations
2 | B2 | 12 ln median PBM intensity, better of two orientations
3 | B3 | 12 ln median PBM intensity, better of two orientations
4 | B4 | 12 ln median PBM intensity, better of two orientations
5 | B5 | 11.2 ln median PBM intensity, better of two orientations
6 | B6 | 12 ln median PBM intensity, better of two orientations
7 | B7 | 12 ln median PBM intensity, better of two orientations
8 | B8 | 12 ln median PBM intensity, better of two orientations
9 | B9 | 12 ln median PBM intensity, better of two orientations
10 | B10 | 12 ln median PBM intensity, better of two orientations
11 | B11 | 11.3 ln median PBM intensity, better of two orientations
12 | B12 | 11.8 ln median PBM intensity, better of two orientations
13 | B13 | 12 ln median PBM intensity, better of two orientations
14 | B14 | 11.8 ln median PBM intensity, better of two orientations
15 | B15 | 12 ln median PBM intensity, better of two orientations
16 | B16 | 12 ln median PBM intensity, better of two orientations

Row | Binder | binding signal
17 | B17 | 12 ln median PBM intensity, better of two orientations
18 | B18 | 11.6 ln median PBM intensity, better of two orientations
19 | B19 | 11.6 ln median PBM intensity, better of two orientations
20 | B20 | 11.3 ln median PBM intensity, better of two orientations
21 | B21 | 11.9 ln median PBM intensity, better of two orientations
22 | B22 | 12 ln median PBM intensity, better of two orientations
23 | B23 | 11.3 ln median PBM intensity, better of two orientations
24 | B24 | 12 ln median PBM intensity, better of two orientations
25 | B25 | 11.7 ln median PBM intensity, better of two orientations
26 | B26 | 11.4 ln median PBM intensity, better of two orientations
27 | B27 | 12 ln median PBM intensity, better of two orientations
28 | B28 | 12 ln median PBM intensity, better of two orientations
29 | B29 | 11.4 ln median PBM intensity, better of two orientations
30 | B30 | 12 ln median PBM intensity, better of two orientations
31 | B31 | 11.6 ln median PBM intensity, better of two orientations
32 | B32 | 11.5 ln median PBM intensity, better of two orientations
